Measurements as given in US20230265179A1 (TWIST BIOSCIENCE, published 2023).
Changes are numbered by the printed parent chain.

B1: IL1RL2-12 (VHH)
VHH: EVQLVESGGGLVQPGGSLRLSCAASGPMSSSAVMGWFRQAPGKEREFVAVVTRWSGARTVYADSVKGRFTISADNSKNTAYLQMNSLKPEDTAVYYCAVSQPLNYYTYYDPRRYDWGQGTLVTVSS
notes: VHH-Fc based on IgG2 Fc
B2: IL1RL2-17 (VHH)
VHH: EVQLVESGGGLVQPGGSLRLSCAASGRTFSTYDMGWFRQAPGKERELVASITFGGDTNYADSVKGRFTISADNSKNTAYLQMNSLKPEDTAVYYCADVNGDWGQGTLVTVSS
notes: VHH-Fc based on IgG2 Fc
B3: IL1RL2-15 (VHH)
VHH: B2 VHH with L47F, S50V, T52N, F53Y, G54R, D56S, N58T
notes: VHH-Fc based on IgG2 Fc
B4: IL1RL2-5 (VHH)
VHH: B2 VHH with S30D, T31S, F53Y, G54L, D56R
notes: VHH-Fc based on IgG2 Fc
B5: IL1RL2-22 (VHH)
VHH: EVQLVESGGGLVQPGGSLRLSCAASGRTFGSYAMGWFRQAPGKEREFVAAINWSGARTYYADSVKGRFTISADNSKNTAYLQMNSLKPEDTAVYYCAVSQPLNYYTYYDARRYDWGQGTLVTVSS
notes: VHH-Fc based on IgG2 Fc
B6: IL1RL2-35 (VHH)
VHH: EVQLVESGGGLVQPGGSLRLSCAASGRTFSTYDMGWFRQAPGKEREFVAAISWSGGSTNYADSVKGRFTISADNSKNTAYLQMNSLKPEDTAVYYCADVNGDWGQGTLVTVSS
notes: VHH-Fc based on IgG2 Fc
B7: IL1RL2-20 (VHH)
VHH: B6 VHH with F29G, F47L, S54R, N59Y
notes: VHH-Fc based on IgG2 Fc
B8: TSLP-13 (VHH)
VHH: EVQLVESGGGLVQPGGSLRLSCAASGFTFDDNDMGWFRQAPGKEREFVGAISWSGNTTYYKYYADSVKGRFTISADNSKNTAYLQMNSLKPEDTAVYYCSNQYGWGQGTLVTVSS
notes: VHH-Fc (IgG2 Fc); not shown: IgG2 Fc of the VHH-Fc format
B9: TSLP-17 (VHH)
VHH: EVQLVESGGGLVQPGGSLRLSCAASGTTFEIYPMGWFRQAPGKEREFVAAIHWNSGITYYADSVKGRFTISADNSKNTAYLQMNSLKPEDTAVYYCARDVFYFDSSGYSLWGQGTLVTVSS
notes: as for B8
B10: TSLP-16 (VHH)
VHH: EVQLVESGGGLVQPGGSLRLSCAASGFSLDDYAMGWFRQAPGKEREGVATIAGGYTYYADSVKGRFTISADNSKNTAYLQMNSLKPEDTAVYYCAAFDGYTGSDWGQGTLVTVSS
notes: not shown: IgG2 Fc of the VHH-Fc format
B11: IL1RL2-285 (antibody, V domains shown)
VH: EVQLLESGGGLVQPGGSLRLSCAASGFTFSNFAMSWVRQAPGKGLEWVSTISGSGGSTSYADSVKGRFTISRDNSKNTLYLQMNSLRAEDTAVYYCAREKRSSGWYPHFDYWGQGTLVTVSS
VL: DIQMTQSPSSLSASVGDRVTITCRASQTIGTYLNWYQQKPGKAPKLLIYGGSRLQSGVPSRFSGSGSGTDFTLTISSLQPEDFATYYCQQSYSTPYTFGGGTKVEIK
notes: IgG2
B12: IL1RL2-299 (antibody, V domains shown)
VH: EVQLLESGGGLVQPGGSLRLSCAASGFIFSRYAMSWVRQAPGKGLEWVSAISESGGNTYYADSVKGRFTISRDNSKNTLYLQMNSLRAEDTAVYYCARQRYPGGSGSYADYWGQGTLVTVSS
VL: B11 VL with T28S, G30S, Y32D, G51V, R53S, Y92H, Y96F
notes: IgG2
B13: IL1RL2-298 (antibody, V domains shown)
VH: B11 VH with S30P, N31S, F32Y, S35A, T50A, G56S, T58P, S59Y
VL: DIQMTQSPSSLSASVGDRVTITCRASRSIDTYLNWYQQKPGKAPKLLIYGGSRLQSGVPSRFSGSGSGTDFTLTISSLQPEDFATYYCQQSYSTPPVTFGGGTKVEIK
notes: IgG2
B14: IL1RL2-153 (antibody, V domains shown)
VH: EVQLLESGGGLVQPGGSLRLSCAASGFIFQWYDMGWVRQAPGKGLEWVSSIRGSSSSTYYADSVKGRFTISRDNSKNTLYLQMNSLRAEDTAVYYCARDLGDYWGQGTLVTVSS
VL: DIQMTQSPSSLSASVGDRVTITCRASQNIRSYLNWYQQKPGKAPKLLIYDDIDRPSGVPSRFSGSGSGTDFTLTISSLQPEDFATYYCQTWGPGIRVFGQGTKVEIK
notes: IgG2
B15: IL1RL2-180 (antibody, V domains shown)
VH: EVQLLESGGGLVQPGGSLRLSCAASGFTFSDYDMSWVRQAPGKGLEWVSAIEGAGSDTYYADSVKGRFTISRDNSKNTLYLQMNSLRAEDTAVYYCARLAPEFDYWGQGTLVTVSS
VL: DIQMTQSPSSLSASVGDRVTITCRASQSISSYVNWYQQKPGKAPKLLIYQNDKRPSGVPSRFSGSGSGTDFTLTISSLQPEDFATYYCQPSFYFPYAFGQGTKVEIK
notes: IgG2
B16: IL1RL2-187 (antibody, V domains shown)
VH: EVQLLESGGGLVQPGGSLRLSCAASGFTLSSYAMSWVRQAPGKGLEWVSSISSSGGYTGYADSVKGRFTISRDNSKNTLYLQMNSLRAEDTAVYYCAKSFSFFDYWGQGTLVTVSS
VL: DIQMTQSPSSLSASVGDRVTITCRASQSISSYVNWYQQKPGKAPKLLIYGSSYLQSGVPSRFSGSGSGTDFTLTISSLQPEDFATYYCQQNNNWPTTFGQGTKVEIK
notes: IgG2
B17: IL1RL2-300 (antibody, V domains shown)
VH: EVQLLESGGGLVQPGGSLRLSCAASGFTFSGYAMNWVRQAPGKGLEWVSTISGSGVSTYYADSVKGRFTISRDNSKNTLYLQMNSLRAEDTAVYYCAREQHLVEGDFDNWGQGTLVTVSS
VL: B16 VL with A25T, V33L, G50A, S51A, Y53S, N91S, N92Y, W94I, T96Y
notes: IgG2
B18: IL1RL2-165 (antibody, V domains shown)
VH: EVQLLESGGGLVQPGGSLRLSCAASGFTFSSAAMSWVRQAPGKGLEWVSAISGSGGNTYYADSVKGRFTISRDNSKNTLYLQMNSLRAEDTAVYYCARSYGGGFDYWGQGTLVTVSS
VL: DIQMTQSPSSLSASVGDRVTITCSGHNLGDKFASWYQQKPGKAPKLLIYSASNLESGVPSRFSGSGSGTDFTLTISSLQPEDFATYYCQSYASQGIHYVFGQGTKVEIK
notes: IgG2
B19: IL1RL2-302 (antibody, V domains shown)
VH: EVQLLESGGGLVQPGGSLRLSCAASGFPLSSYAMSWVRQAPGKGLEWVSLISGSGVSTYYADSVKGRFTISRDNSKNTLYLQMNSLRAEDTAVYYCARGWGAAEEWGQGTLVTVSS
VL: DIQMTQSPSSLSASVGDRVTITCRASQRISNYLHWYQQKPGKAPKLLIYAASRLHSGVPSRFSGSGSGTDFTLTISSLQPEDFATYYCQQSHTIPYTFGQGTKVEIK
notes: IgG2
B20: IL1RL2-179 (antibody, V domains shown)
VH: EVQLLESGGGLVQPGGSLRLSCAASGFTFSPRRMSWVRQAPGKGLEWVSTIDDLGRHTYYADSVKGRFTISRDNSKNTLYLQMNSLRAEDTAVYYCAKLANSLLFDYWGQGTLVTVSS
VL: DIQMTQSPSSLSASVGDRVTITCRASENIYSNLAWYQQKPGKAPKLLIYAASDLESGVPSRFSGSGSGTDFTLTISSLQPEDFATYYCGATDLSPWSIVFDQGTKVEIK
notes: IgG2

target: T1, IL1RL2 (UniProt Q9HB29 20-335, limits assumed); test: SPR (Carterra LSA), antibody immobilised, 1:1 model
T1 construct: Soluble analyte of the SPR runs
T1 sequence (looked up): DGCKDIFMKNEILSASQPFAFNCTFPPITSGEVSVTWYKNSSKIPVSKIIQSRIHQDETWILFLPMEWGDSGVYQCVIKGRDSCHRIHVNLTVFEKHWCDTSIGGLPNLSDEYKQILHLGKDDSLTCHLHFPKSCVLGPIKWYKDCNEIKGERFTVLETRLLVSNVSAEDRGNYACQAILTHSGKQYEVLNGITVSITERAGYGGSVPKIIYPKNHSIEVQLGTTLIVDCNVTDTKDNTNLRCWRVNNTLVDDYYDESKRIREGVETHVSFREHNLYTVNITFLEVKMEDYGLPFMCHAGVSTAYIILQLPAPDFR
Procedure: (§1) SPR experiments were performed on a Carterra LSA SPR biosensor equipped with a HC30M chip at 25° C. in HBS-TE. Antibodies were diluted to 10 μg/mL and amine-coupled to the sensor chip by EDC/NHS activation, followed by ethanolamine HCl quenching. Increasing concentrations of analyte were flowed over the sensor chip in HBS-TE with 0.5 mg/mL BSA with 5-minute association and 15-minute dissociation. Following each injection cycle the surface was regenerated with 2× 30-second injections of IgG elution buffer (Thermo). Data were analyzed in Carterra's Kinetics Tool software with 1:1 binding model.

In order of rising Kd:
1. B2  1.45 nM
2. B4  2.72 nM
3. B7  3.28 nM
4. B5  3.59 nM
5. B3  4.13 nM
6. B6  4.74 nM
7. B1  12.1 nM

In order of rising koff:
1. B5  0.000126 s⁻¹
2. B3  0.000218 s⁻¹
3. B2  0.00024 s⁻¹
4. B4  0.000343 s⁻¹
5. B7  0.000363 s⁻¹
6. B1  0.000485 s⁻¹
7. B6  0.000593 s⁻¹

In order of falling kon:
1. B2  166000 M⁻¹ s⁻¹
2. B4  126000 M⁻¹ s⁻¹
3. B6  125000 M⁻¹ s⁻¹
4. B7  111000 M⁻¹ s⁻¹
5. B3  52700 M⁻¹ s⁻¹
6. B1  40200 M⁻¹ s⁻¹
7. B5  35000 M⁻¹ s⁻¹

target: T2, TSLP (UniProt Q969D9 29-159); test: SPR, Carterra LSA, antibody amine-coupled, 1:1 model
T2 construct: Soluble analyte of the SPR assay
Procedure: as §1

In order of rising Kd:
1. B9  11.2 nM
2. B10  11.9 nM
3. B8  41.3 nM

In order of rising koff:
1. B9  0.00042 s⁻¹
2. B8  0.0013 s⁻¹
3. B10  0.00143 s⁻¹

In order of falling kon:
1. B10  120000 M⁻¹ s⁻¹
2. B9  37500 M⁻¹ s⁻¹
3. B8  31600 M⁻¹ s⁻¹

target: T3, IL1RL2 over-expressed on Expi293 cells (UniProt Q9HB29 20-575, limits assumed); test: flow cytometry titration on over-expressing Expi293 cells
T3 construct: whole, on cells; Target of the flow cytometry assay; MFI ratio is over-expressing cells over parent cells
T3 sequence (looked up): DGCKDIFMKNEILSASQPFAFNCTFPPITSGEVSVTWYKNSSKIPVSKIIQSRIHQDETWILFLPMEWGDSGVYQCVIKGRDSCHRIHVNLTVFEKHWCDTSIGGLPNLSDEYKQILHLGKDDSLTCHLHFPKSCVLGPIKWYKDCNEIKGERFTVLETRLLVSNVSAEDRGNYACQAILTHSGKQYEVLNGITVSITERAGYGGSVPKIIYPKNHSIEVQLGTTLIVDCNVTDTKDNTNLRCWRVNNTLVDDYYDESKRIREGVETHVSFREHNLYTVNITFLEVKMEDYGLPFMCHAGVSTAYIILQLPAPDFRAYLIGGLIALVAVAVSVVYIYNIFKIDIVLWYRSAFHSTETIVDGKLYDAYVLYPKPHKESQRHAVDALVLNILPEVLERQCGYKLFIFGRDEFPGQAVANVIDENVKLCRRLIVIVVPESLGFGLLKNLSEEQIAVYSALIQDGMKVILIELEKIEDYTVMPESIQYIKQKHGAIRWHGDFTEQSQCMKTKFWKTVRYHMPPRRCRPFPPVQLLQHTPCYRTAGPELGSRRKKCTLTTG
Procedure: (§2) All incubations and washes were in buffer containing PBS+1% BSA. MFI Ratio is defined by the mean fluorescence intensity (MFI) of the cytokine over-expressing Expi293 cell over the Expi293 parent cell. […] EC50 was calculated in GraphPad Prism.

In order of rising EC50:
1. B6  0.508 nM
2. B1  0.528 nM
3. B3  0.622 nM
4. B19  1.1 nM
5. B17  1.57 nM
6. B12  2.25 nM
7. B16  2.26 nM
8. B5  3.02 nM
9. B7  9.03 nM
10. B2  11.2 nM
11. B4  13.4 nM
12. B15  15.2 nM
13. B20  27.5 nM
14. B18  34.5 nM
15. B13  100 nM
16. B14  445 nM
17. B11  618 nM

target: T4, TSLP on over-expressing Expi293 cells (UniProt Q969D9 29-159, limits assumed); test: flow cytometry titration on TSLP over-expressing Expi293 cells
T4 construct: whole, on cells; Target of the flow cytometry assay; also called cytokine over-expressing Expi293 cells
Procedure: as §2

In order of rising EC50:
1. B9  0.12 nM
2. B8  0.37 nM
3. B10  0.58 nM

target: T4, TSLP on over-expressing Expi293 cells; test: flow cytometry, 100 nM, TSLP over-expressing Expi293 over parent cells
Procedure: as §2

In order of rising “100 nM (MFI Ratio)” value:
1. B10  10 MFI ratio
2. B8  120 MFI ratio
3. B9  154 MFI ratio

target: T3, IL1RL2 over-expressed on Expi293 cells; test: flow cytometry, over-expressing Expi293 vs parent cells, 100 nM antibody;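 further: ratio is mean fluorescence intensity on over-expressing Expi293 cells divided by that measured on parental Expi293 cells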
Procedure: as §2

In order of rising “100 nM FACS (MFI Ratio)” value:
1. B7  11.6
2. B4  13.9
3. B3  14.4
4. B5  15.4
5. B2  15.6
6. B6  15.6
7. B20  17.7
8. B12  19.2
9. B15  21.5
10. B17  23.9
11. B1  33.8
12. B16  45
13. B13  49.6
14. B19  192
15. B11  214
16. B14  350
17. B18  707
